Laboratory results taken from the RNAGym collection of RNA variant scans (doi:10.7554/elife.80360).

B1: Twister Ribozyme (parent)
chain: AACACUGCCAAUGCCGGUCCCAAGCCCGGAUAAAAGUGGAGGGGGCGG

Variants of: B1
Assay: self-cleavage, relative activity (ratio to wild type); higher = more cleavage; co-transcriptional

Row | Variant | self-cleavage
1 | C9U C21U | 0.0907
2 | C9U C25A | 0.1
3 | C9U C25U | 0.404
4 | C9U C27A | 0.064
5 | C9U C46A | 0.549
6 | C9U C46G | 0.651
7 | C9U G13U | 0.826
8 | C9U G16C | 0.13
9 | C9U G17A | 0.0711
10 | C9U G24A | 0.0648
11 | C9U G24C | 0.0718
12 | C9U G28C | 0.549
13 | C9U G29C | 0.242
14 | C9U G29U | 0.606
15 | C9U G36A | 0.281
16 | C9U G36U | 0.164
17 | C9U G38A | 0.177
18 | C9U G38C | 0.509
19 | C9U G39C | 0.151
20 | C9U G39U | 0.115
21 | C9U G41A | 0.121
22 | C9U G41U | 0.187
23 | C9U G42C | 0.193
24 | C9U G42U | 0.102

Row | Variant | self-cleavage
25 | C9U G43C | 0.151
26 | C9U G45A | 0.547
27 | C9U G45U | 0.328
28 | C9U G47C | 0.235
29 | C9U G48A | 0.491
30 | C9U G48C | 0.795
31 | C9U G48U | 0.646
32 | C9U U12A | 0.794
33 | C9U U12G | 0.501
34 | C9U U31G | 0.69
35 | A10C A22C | 0.993
36 | A10C A23C | 0.242
37 | A10C A23U | 0.664
38 | A10C A30C | 0.884
39 | A10C A30G | 0.969
40 | A10C A32G | 0.971
41 | A10C A32U | 0.892
42 | A10C A33C | 1.14
43 | A10C A35G | 0.965
44 | A10C A40G | 0.181
45 | A10C A40U | 0.155
46 | A10C C14G | 0.289
47 | A10C C14U | 1.01
48 | A10C C19G | 0.309

Row | Variant | self-cleavage
49 | A10C C20G | 0.0778
50 | A10C C20U | 0.941
51 | A10C C21G | 0.0689
52 | A10C C25A | 0.0743
53 | A10C C25G | 0.31
54 | A10C C25U | 0.782
55 | A10C C26U | 0.508
56 | A10C C27A | 0.673
57 | A10C C27G | 0.0988
58 | A10C C46G | 0.714
59 | A10C G13U | 0.677
60 | A10C G16A | 0.726
61 | A10C G16C | 0.526
62 | A10C G24C | 0.0859
63 | A10C G28A | 0.841
64 | A10C G28C | 0.822
65 | A10C G36C | 0.688
66 | A10C G38A | 0.947
67 | A10C G39U | 0.148
68 | A10C G41A | 0.494
69 | A10C G41C | 0.23
70 | A10C G41U | 0.653
71 | A10C G42A | 0.31
72 | A10C G42C | 0.345

Row | Variant | self-cleavage
73 | A10C G43A | 0.337
74 | A10C G43C | 0.201
75 | A10C G43U | 0.482
76 | A10C G44U | 0.859
77 | A10C G45U | 0.842
78 | A10C G47C | 0.538
79 | A10C G47U | 0.741
80 | A10C G48C | 1.03
81 | A10C U12G | 1.06
82 | A10C U18C | 0.787
83 | A10C U31G | 0.737
84 | A10C U37C | 0.767
85 | A10G A11G | 0.886
86 | A10G A22C | 0.818
87 | A10G A22G | 0.268
88 | A10G A22U | 0.971
89 | A10G A23C | 0.714
90 | A10G A23G | 0.879
91 | A10G A30C | 0.981
92 | A10G A30U | 0.984
93 | A10G A32G | 1.15
94 | A10G A32U | 1.01
95 | A10G A33G | 1.04
96 | A10G A34C | 0.498

Row | Variant | self-cleavage
97 | A10G A34U | 0.959
98 | A10G A35C | 1.17
99 | A10G A35U | 0.943
100 | A10G A40C | 0.46
101 | A10G A40G | 0.185
102 | A10G A40U | 0.157
103 | A10G C14G | 0.0768
104 | A10G C14U | 1.02
105 | A10G C15A | 0.707
106 | A10G C15G | 0.136
107 | A10G C19A | 0.472
108 | A10G C19U | 1.02
109 | A10G C20A | 0.136
110 | A10G C20G | 0.183
111 | A10G C20U | 0.878
112 | A10G C21A | 0.137
113 | A10G C21G | 0.0634
114 | A10G C25G | 0.409
115 | A10G C26A | 0.518
116 | A10G C26U | 0.285
117 | A10G C27U | 1.01
118 | A10G C46A | 0.939
119 | A10G C46G | 0.971
120 | A10G G13A | 1.09

Row | Variant | self-cleavage
121 | A10G G13C | 0.835
122 | A10G G13U | 0.79
123 | A10G G16C | 0.567
124 | A10G G16U | 1.14
125 | A10G G17A | 1.02
126 | A10G G17C | 0.217
127 | A10G G24C | 0.131
128 | A10G G24U | 0.18
129 | A10G G28C | 1.05
130 | A10G G29C | 1.01
131 | A10G G29U | 1.12
132 | A10G G38A | 0.89
133 | A10G G39A | 0.564
134 | A10G G42C | 0.618
135 | A10G G42U | 0.493
136 | A10G G43A | 0.363
137 | A10G G43C | 0.262
138 | A10G G44A | 0.881
139 | A10G G44C | 0.965
140 | A10G G44U | 1.04
141 | A10G G45C | 0.639
142 | A10G G47A | 0.821
143 | A10G G47C | 0.809
144 | A10G G48A | 0.902

Row | Variant | self-cleavage
145 | A10G G48U | 1.15
146 | A10G U12C | 0.847
147 | A10G U18A | 0.841
148 | A10G U18G | 0.0537
149 | A10G U37A | 0.805
150 | A10G U37C | 0.946
151 | A10G U37G | 0.89
152 | A10U A22C | 0.93
153 | A10U A23C | 0.182
154 | A10U A23G | 0.461
155 | A10U A32C | 0.983
156 | A10U A32G | 0.896
157 | A10U A32U | 0.842
158 | A10U A34U | 0.818
159 | A10U A35U | 0.89
160 | A10U A40C | 0.305
161 | A10U A40U | 0.111
162 | A10U C14U | 0.884
163 | A10U C15A | 0.619
164 | A10U C15G | 0.062
165 | A10U C15U | 0.911
166 | A10U C19U | 0.92
167 | A10U C25G | 0.194
